Data from patent US20220259593A1, “CONTROL OF MAMMALIAN GENE DOSAGE USING CRISPR” (The Regents of the University of California, priority 2019, published 2022).
Positions count from the first letter of the chain named.

B1: cr685 (nucleic acid)
guide: GTTTAAGAGCTAAGCTGGAAACAGCATAGCAAGTTTAAATAAGGCTAGTCCGTTATCAGCTTGAAAAAGTGGCACCGAGTCGGTGCT
modifications: listed as DNA, chemistry not fully specified
B2: cr623 (nucleic acid)
guide: B1 guide with G59C, C60T, T61G, A68C, G69A, T70G
modifications: listed as DNA, chemistry not fully specified
B3: cr850 (nucleic acid)
guide: B1 guide with G59A, A78G, T80G
modifications: listed as DNA, chemistry not fully specified
B4: cr468 (nucleic acid)
guide: B1 guide with T34A, G59A
modifications: listed as DNA, chemistry not fully specified
B5: cr146 (nucleic acid)
guide: B1 guide with G59A, C76G, G77C, C81G, G82C
modifications: listed as DNA, chemistry not fully specified
B6: cr173 (nucleic acid)
guide: B1 guide with G43A, C51T, G59A, C73T, C75G, G83C, G85A
modifications: listed as DNA, chemistry not fully specified
B7: cr210 (nucleic acid)
guide: B1 guide with A58T, G59A, A65C
modifications: listed as DNA, chemistry not fully specified
B8: cr466 (nucleic acid)
guide: B1 guide with T40A, G59A
modifications: listed as DNA, chemistry not fully specified
B9: cr709 (nucleic acid)
guide: B1 guide with C57T, G59A, G71T
modifications: listed as DNA, chemistry not fully specified
B10: cr108 (nucleic acid)
guide: B1 guide with G43A, C51T, G59A, A65G
modifications: listed as DNA, chemistry not fully specified
B11: cr004 (nucleic acid)
guide: B1 guide with T2A, G59A
modifications: listed as DNA, chemistry not fully specified
B12: cr897 (nucleic acid)
guide: B1 guide with A38T, G59A
modifications: listed as DNA, chemistry not fully specified
B13: cr055 (nucleic acid)
guide: B1 guide with T2G, A8C, G59A
modifications: listed as DNA, chemistry not fully specified
B14: cr069 (nucleic acid)
guide: B1 guide with T2C, G7A, G59A
modifications: listed as DNA, chemistry not fully specified
B15: cr002 (nucleic acid)
guide: B1 guide with G1C, G59A
modifications: listed as DNA, chemistry not fully specified
B16: cr192 (nucleic acid)
guide: B1 guide with G59A, A74C, G77C, C81G, T84G
modifications: listed as DNA, chemistry not fully specified
B17: cr634 (nucleic acid)
guide: B1 guide with A32G, A58G, G59A
modifications: listed as DNA, chemistry not fully specified
B18: cr351 (nucleic acid)
guide: B1 guide with A47C, C57A, G59A, G63A
modifications: listed as DNA, chemistry not fully specified
B19: cr014 (nucleic acid)
guide: B1 guide with A5C, G59A
modifications: listed as DNA, chemistry not fully specified
B20: cr573 (nucleic acid)
guide: B1 guide with A31T, T53A, G59A, G71C
modifications: listed as DNA, chemistry not fully specified
B21: cr064 (nucleic acid)
guide: B1 guide with A5T, G59A
modifications: listed as DNA, chemistry not fully specified
B22: cr074 (nucleic acid)
guide: B1 guide with A6T, A8C, G59A
modifications: listed as DNA, chemistry not fully specified
B23: cr689 (nucleic acid)
guide: B1 guide with T34C, A55T, G59A, A65T
modifications: listed as DNA, chemistry not fully specified
B24: cr051 (nucleic acid)
guide: B1 guide with G1T, G7C, G59A
modifications: listed as DNA, chemistry not fully specified
B25: cr889 (nucleic acid)
guide: B1 guide with G43A, C51T, G59A, G72T, C86A
modifications: listed as DNA, chemistry not fully specified
B26: cr242 (nucleic acid)
guide: B1 guide with C45G, G48C, G59A, C60G, G69C, G77T, C81A
modifications: listed as DNA, chemistry not fully specified
B27: cr182 (nucleic acid)
guide: B1 guide with G33T, G59A
modifications: listed as DNA, chemistry not fully specified
B28: cr349 (nucleic acid)
guide: B1 guide with G59A, C81T
modifications: listed as DNA, chemistry not fully specified
B29: cr252 (nucleic acid)
guide: B1 guide with G52A, G59A
modifications: listed as DNA, chemistry not fully specified
B30: cr006 (nucleic acid)
guide: B1 guide with T2G, G59A
modifications: listed as DNA, chemistry not fully specified

Each molecule was assayed on K562 CRISPRi cells (assay: Constant region variant library pooled growth screen, K562). Details: sgRNA constant region variants; activity relative to the original, un-modified constant region cr995.
Type: cell-based, human
Procedure, shortened: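 Pooled library transduced into K562 CRISPRi cells in duplicate, puromycin-selected, grown at >2000× coverage and sampled after 4 to 8 days. Phenotypes per targeting sequence:constant region pair were normalized to the unmodified-scaffold pairing to give relative activity.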
B1 was tested, and the Mean relative activity was 1.041. Work on B2 yielded a Mean relative activity of 1.041.

Same assay, conditions: sgRNA constant region variants; activity relative to the unmodified constant region cr995
With B3 the Mean relative activity was 0.3225. For B4, the Mean relative activity was 0.32. B5 was tested, and the Mean relative activity was 0.3141. Work on B6 yielded a Mean relative activity of 0.3244. B7 gave a Mean relative activity of 0.313. B8 was tested, and the Mean relative activity was 0.3153. In the case of B9, the Mean relative activity is reported as 0.3211. B10 gave a Mean relative activity of 0.3221. B11 showed a Mean relative activity of 0.3103. In the case of B12, the Mean relative activity is reported as 0.3233. Work on B13 yielded a Mean relative activity of 0.3045. Work on B14 yielded a Mean relative activity of 0.3244. B15 gave a Mean relative activity of 0.3195.

Same assay, conditions: sgRNA constant region variants; relative to the original, un-modified constant region cr995; CRISPRi
B16 showed a Mean relative activity of 0.3609. B17 gave a Mean relative activity of 0.3508. In the case of B18, the Mean relative activity is reported as 0.3557. B19 gave a Mean relative activity of 0.3395. B20 was tested, and the Mean relative activity was 0.3297. Work on B21 yielded a Mean relative activity of 0.3383. With B22 the Mean relative activity was 0.341. For B23, the Mean relative activity was 0.3547. With B24 the Mean relative activity was 0.3367. Work on B25 yielded a Mean relative activity of 0.3347. In the case of B26, the Mean relative activity is reported as 0.3244. B27 showed a Mean relative activity of 0.3559. B28 gave a Mean relative activity of 0.3326. For B29, the Mean relative activity was 0.3581. Molecule B30 has a Mean relative activity of 0.3275.
